T1: human PVRIG on FlpinCHO-PVRIG cells (human, UniProt Q6DKI7 41-326)
T1 construct: whole, on cells; also called FlpinCHO-hPVRIG; FlpinCHO-human PVRIG
T1 sequence (looked up): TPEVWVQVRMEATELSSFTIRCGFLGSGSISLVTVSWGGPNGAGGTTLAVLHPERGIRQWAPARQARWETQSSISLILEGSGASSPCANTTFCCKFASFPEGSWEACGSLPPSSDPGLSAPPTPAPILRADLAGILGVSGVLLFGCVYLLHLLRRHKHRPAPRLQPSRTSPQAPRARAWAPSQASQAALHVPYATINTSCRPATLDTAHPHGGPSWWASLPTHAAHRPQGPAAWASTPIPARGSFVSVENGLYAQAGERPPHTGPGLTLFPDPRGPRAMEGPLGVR

T2: human PVRIG-mFc protein (Acro, PVG-H5253) (human, UniProt Q6DKI7 41-171, limits assumed)
T2 construct: bought reagent; also called PVRIG-ECD-mFc
T2 sequence (looked up): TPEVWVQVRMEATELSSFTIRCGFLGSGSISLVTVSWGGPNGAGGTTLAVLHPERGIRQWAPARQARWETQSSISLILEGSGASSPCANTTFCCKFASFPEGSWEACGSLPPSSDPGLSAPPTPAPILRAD

T3: human PVRIG-his (AcroBiosystems, Cat NO. PVG-H52H4) (human, UniProt Q6DKI7 41-171, limits assumed)
T3 construct: treated as the same protein; also called human PVRIG-His protein; Human PVRIG-His, Acro C227P1-9ARF1-T4
T3 sequence (looked up): T2 sequence (looked up)

B1: PVRIG-A11 (VHH)
VHH: QLQLVESGGGLVQPGGSLRLSCAASGFTDDYYAIGWFRQAPGKEREGVSCISGSGGSTNYEDSVKGRFAISRDNAKNMVYLQMNDLKPEDTAVYYCAADPFWSAPCTGHNDRYFDVWGQGTLVTVSS
notes: tested as VHH-hinge-CH2-CH3 (human IgG1-Fc); not shown: human IgG1 hinge-CH2-CH3
B2: PVRIG-A117 (VHH)
VHH: EVQVVESGGGLVQAGGSLRLSCTASEHIYDLYIMGWYRQAPGKDRELVATITYTGSIYIADSVKDRFTISRGNAKNTVSLQMSGLKPEDTAVYYCNADPSGLGRKLYWGQGTQVTVSS
notes: as for B1

Key:
[1] = biological target: T1, human PVRIG on FlpinCHO-PVRIG cells; assay: FACS, FlpinCHO-PVRIG cells
Experimental: After discarding the cell culture medium, the cells were rinsed with PBS and digested for 8-10 minutes by adding 1 mL Versene (Gibico, 15040-066). The Ham's F12 (Gibico, 21127-022) complete medium containing 10% FBS was then added to terminate the digestion and acquire cell suspension. After counting with a cell counter (Beckman Coulter, Vi-CELL), an appropriate amount of cell suspension was centrifuged at 350×g to remove the supernatant, washed twice with PBS, stained with Zombie violet (Biolegend, 423114) and incubated at room temperature for 20 minutes. After incubation, the cells were added with staining buffer (2% FBS+PBS) to stop staining, centrifuged at 350×g to remove the supernatant, washed twice and resuspended with staining buffer to a density of 2×10⁶ cells/mL. The cells were plated into a 96-well plate (50 μL of cell suspension per well) for further use. The antibodies were diluted from the highest concentration of 46 nM (two-fold concentration) with staining buffer by 3.3-fold serial dilution. The diluted antibodies were added to the well containing 50 μL of cell suspension. The plate was placed on a microplate shaker at 400 rpm for 1 minute to fully mix the antibodies and cells, and then incubated at 4° C. for 30 minutes. After the incubation, the cells were washed twice with staining buffer (200 μL per well) and centrifuged at 350×g for 5 minutes to discard the supernatant. The PE goat anti-human IgG Fc antibody (ebioscience, 12-4998-82) was diluted 250 times with staining buffer, added into the washed wells (100 μL per well), mixed well, and stained at 4° C. for 30 minutes. After staining, the cells were washed twice with staining buffer, finally resuspended with 200 μL staining buffer and analyzed by flow cytometry (BD, Canto II). The stronger the signal, the stronger the ability of the antibodies binds to PVRIG. An antibody binding curve was drawn with concentration of antibodies as the abscissa and the corresponding Mean Fluorescence Intensity (MFI) as the ordinate. The AUC value of the curve was calculated by using a Four Parameter Logistic Fit (GraphPadPrism9).

[2] = biological target: T2, human PVRIG-mFc protein (Acro, …); assay: competition FACS; blocked: human PVRIG-mFc binding to CHO-K1-CD112 cells
Experimental: After incubation, the cells were added with staining buffer (2% FBS+PBS) to stop staining, centrifuged at 350×g to remove the supernatant, washed twice and resuspended with staining buffer to a density of 1×10⁶ cells/mL. The cells were plated into a 96-well plate (50 μL of cell suspension per well) for further use. A working solution of human PVRIG-mFc protein (Acro, PVG-H5253) prepared with staining buffer, 1 μg/mL (four-fold concentration), was added into a 96-well plate (50 μL PVRIG-mFc working solution per well). […] The diluted antibodies were added to the well containing 50 μL of PVRIG-mFc. The plate was placed on a microplate shaker at 400 rpm for 1 minute to fully mix the antibodies and PVRIG-mFc proteins, and then incubated at 4° C. for 30 minutes. After the incubation, the cell suspension prepared above (100 μL) was added into the wells, gently mixed with the pipette tip and incubated at 4° C. for 30 minutes. After the incubation, the cells were washed twice with staining buffer (200 μL per well) and centrifuged at 350×g for 5 minutes to discard the supernatant. The PE goat anti-mouse IgG Fc antibody (Biolegend, 405337) was diluted 250 times with staining buffer, added into the washed wells (100 μL per well), mixed well, and stained at 4° C. for 30 minutes. After staining, the cells were washed twice with staining buffer, finally resuspended with 200 μL staining buffer and analyzed by flow cytometry (BD, Canto II). The weaker the fluorescence signal, the stronger the ability of the antibodies blocks the binding of CHO-K1 human CD112 cells to the PVRIG-mFc protein. An antibody binding curve was drawn with concentration of antibodies as the abscissa and the corresponding Mean Fluorescence Intensity (MFI) as the ordinate. The IC50 value of the antibodies and the AUC value of the binding curve were calculated by using a Four Parameter Logistic Fit (GraphPadPrism9). The smaller the IC50 value and AUC value, the stronger the ability of the antibodies competes with CHO-K1-CD112 cells to bind to human PVRIG-mFc protein.

[3] = biological target: T3, human PVRIG-his (AcroBiosystems, Cat …); assay: competition ELISA on coated human PVRIG-his; blocked ligand human PVRL2-mFc
Experimental: The ELISA plate was pre-coated with 100 μL/well of 0.5 μg/mL human PVRIG-his protein (AcroBiosystems, Cat NO. PVG-H52H4). The tested anti-PVRIG antibodies were diluted from the highest concentration of 16 nM (two-fold concentration). The diluted antibodies were mixed with 18 ng/ml human PVRL2-mFc (AcroBiosystems, Cat NO. CD2-H5257) in equal volume, added into the plate (100 μL/well), and incubated with shaking at room temperature for 2.0 hours. […] A HRP substrate, TMB (Thermo, Cat NO. 34029) was added into wells after washing the plate again for color development. After adding a termination solution to terminate the reaction, the absorbance value was read by a microplate reader (MD i3×). An inhibiting curve was drawn with concentration of antibodies as the abscissa and the corresponding OD value as the ordinate. The IC50 value was calculated by using a Four Parameter Logistic Fit (GraphPadPrism9). The smaller the IC50 value, the stronger the ability of the antibodies inhibits the binding between PVRIG and PVRL2. The positive and negative controls are the same as in Example 8.

Binder	EC50 (read off the curve) [1] [nM]	IC50 (read off the curve) [2] [nM]	IC50 (read off the curve) [3] [nM]
B1	~0.1	~0.9	~0.8
B2	~0.3	~1	~0.5

— patent US20240343803A1 (SHANDONG SIMCERE BIOPHARMACEUTICAL, published 2024)
